Test results published in article PMC11313276, “Structures of Mature and Urea-Treated Empty Bacteriophage T5: Insights into Siphophage Infection and DNA Ejection” (International Journal of Molecular Sciences, 2024).

B1: portal protein pb7 (natural protein, bacteriophage T5)
chain: LNPGQRIIRDMEPVSHRTNRKPFTTGQAYSKIEILNRTANMVIDSAAECSYTVGDKYNIVTYANGVKTKTLDTLLNVRPNPFMDISTFRRLVVTDLLFEGCAYIYWDGTSLYHVPAALMQVEADANKFIKKFIFNNQINYRVDEIIFIKDNSYVCGTNSQISGQSRVATVIDSLEKRSKMLNFKEKFLDNGTVIGLILETDEILNKKLRERKQEELQLDYNPSTGQSSVLILDGGMKAKPYSQISSFKDLDFKEDIEGFNKSICLAFGVPQVLLDGGNNANIRPNIELFYYMTIIPMLNKLTSSLTFFFGYKITPNTKEVAALTPDKEAEAKHLTSLVNNGIITGNEARSELNLEPLDDEQMNKIRIPANVAGSATGVSGQEGGRPKGSTEGD
notes: portal protein pb7 of bacteriophage T5, 403 residues in total; atomic model built for residues 11-377; source: also in virions treated with 4 M urea for 2 h at 37 °C and dialyzed; copies: 12
B2: major capsid protein (MCP) pb8 (natural protein, bacteriophage T5, UniProt Q6QGD8 160-458, looked up)
chain: AVNQSSSVEVSSESYETIFSQRIIRDLQKELVVGALFEELPMSSKILTMLVEPDAGKATWVAASTYGTDTTTGEEVKGALKEIHFSTYKLAAKSFITDETEEDAIFSLLPLLRKRLIEAHAVSIEEAFMTGDGSGKPKGLLTLASEDSAKVVTEAKADGSVLVTAKTISKLRRKLGRHGLKLSKLVLIVSMDAYYDLLEDEEWQDVAQVGNDSVKLQGQVGRIYGLPVVVSEYFPAKANSAEFAVIVYKDNFVMPRQRAVTVERERQAGKQRDAYYVTQRVNLQRYFANGVVSGTYAAS
notes: major capsid protein pb8 of bacteriophage T5, 458 residues; atomic model built for residues 164-457; also called MCP gp8; gp8
B3: tail tube protein (TTP) pb6 (natural protein, bacteriophage T5)
chain: MSLQLLRNTRIFVSTVKTGHNKTNTQEILVQDDISWGQDSNSTDITVNEAGPRPTRGSKRFNDSLNAAEWSFSTYILPYKDKNTSKQIVPDYMLWHALSSGRAINLEGTTGAHNNATNFMVNFKDNSYHELAMLHIYILTDKTWSYIDSCQINQAEVNVDIEDIGRVTWSGNGNQLIPLDEQPFDPDQIGIDDETYMTIQGSYIKNKLTILKIKDMDTNKSYDIPITGGTFTINNNITYLTPNVMSRVTIPIGSFTGAFELTGSLTAYLNDKSLGSMELYKDLIKTLKVVNRFEIALVLGGEYDDERPAAILVAKQAHVNIPTIETDDVLGTSVEFKAIPSDLDAGDEGYLGFSSKYTRTTINNLIVNGDGATDAVTAITVKSAGNVTTLNRSATLQMSVEVTPSSARNKEVTWAITAGDAATINATGLLRADASKTGAVTVEATAKDGSGVKGTKVITVTAGG
notes: tail tube protein pb6 of bacteriophage T5; domains pb6D1, pb6D2 and a protruding Ig-like domain; atomic model built for residues 3-378 (pb6D1 and pb6D2); The tail tube has 40 stacked trimeric rings
B4: p140 (natural protein, bacteriophage T5)
chain: MFYSLMRESKIVIEYDGRGYHFDALSNYDASTSFQEFKTLRRTIHNRTNYADSIINAQDPSSISLAINFSTTLIESNFFDWMGFTREGNSLFLPRNTPNIEPIMFNMYIINHNNSCIYFENCYVSTVDFSLDKSIPILNVGIESGKFSEVSTFRDGYTITQGEVLPYSAPAVYTNSSPLPALISASMSFQQQCSWREDRNIFDINKIYTNKRAYVNEMNASATLAFYYVKRLVGDKFLNLDPETRTPLIIKNKYVSITFPLARISKRLNFSDLYQVEYDVIPTADSDPVEINFFGERK
notes: tail tip complex protein p140 of bacteriophage T5
B5: distal tail protein pb9 (natural protein, bacteriophage T5)
chain: MRLPDPYTNPEYPGLGFESVNLVDNDPMIRDELPNGKVKEVKISAQYWGINISYPELFPDEYAFLDSRLLEYKRTGDYLDVLLPQYEAFRVRGDTKSVTIPAGQKGSQIILNTNGTLTGQPKAGDLFKLSTHPKVYKITNFSSSGNVWNISLYPDLFITTTGSEKPVFNGILFRTKLMNGDSFGSTLNNNGTYSGISLSLRESL
notes: distal tail protein pb9 of bacteriophage T5
B6: baseplate hub protein pb3 (natural protein, bacteriophage T5)
chain: MKKILDSAKNYLNTHDKLKTACLIALELPSSSGSAATYIYLTDYFRDVTYNGILYRSGKVKSISSHKQNRQLSIGSLSFTITGTAEDEVLKLVQNGVSFLDRGITIHQAIINEEGNILPVDPDTDGPLLFFRGRITGGGIKDNVNTSGIGTSVITWNCSNQFYDFDRVNGRYTDDASHRGLEVVNGTLQPSNGAKRPEYQEDYGFFHSNKSTTILAKYQVKEERYKLQSKKKLFGLSRSYSLKKYYETVTKEVDLDFNLAAKFIPVVYGVQKIPGIPIFADTELNNPNIVYVVYAFAEGEIDGFLDFYIGDSPMICFDETDSDTRTCFGRKKIVGDTMHRLAAGTSTSQPSVHGQEYKYNDGNGDIRIWTFHGKPDQTAAQVLVDIAKKKGFYLQNQNGNGPEYWDSRYKLLDTAYAIVRFTINENRTEIPEISAEVQGKKVKVYNSDGTIKADKTSLNGIWQLMDYLTSDRYGADITLDQFPLQKVISEAKILDIIDESYQTSWQPYWRYVGWNDPLSENRQIVQLNTILDTSESVFKNVQGILESFGGAINNLSGEYRITVEKYSTNPLRINFLDTYGDLDLSDTTGRNKFNSVQASLVDPALSWKTNSITFYNSKFKEQDKGLDKKLQLSFANITNYYTARSYADRELKKSRYSRTLSFSVPYKFIGIEPNDPIAFTYERYGWKDKFFLVDEVENTRDGKINLVLQEYGEDVFINSEQVDNSGNDIPDISNNVLPPRDFKYTPTPGGVVGAIGKNGELSWLPSLTNNVVYYSIAHSGHVNPYIVQQLENNPNERMIQEIIGEPAGLAIFELRAVDINGRRSSPVTLSVDLNSAKNLSVVSNFRVVNTASGDVTEFVGPDVKLAWDKIPEEEIIPEIYYTLEIYDSQDRMLRSVRIEDVYTYDYLLTYNKADFALLNSGALGINRKLRFRIRAEGENGEQSVGWATI
notes: baseplate hub protein pb3 of bacteriophage T5
B7: decoration protein pb10 (natural protein, bacteriophage T5, UniProt Q6QGD6 1-164, looked up)
chain: MIDYSGLRTIFGEKLPESHIFFATVAAHKYVPSYAFLRRELGLSSAHTNRKVWKKFVEAYGKAIPPAPPAPPLTLSKDLTASMSVEEGAALTLSVTATGGTGPYTYAWTKDGSPIPDASGATYTKPTAAAEDAGSYKVTVTDSKQVSKDSTTCAVTVNPTVPGG
notes: decoration protein pb10 of bacteriophage T5, 164 residues; alpha-helical domain and Ig-like domain; only residues 2-68 (alpha-helical domain) were resolved; One pb10 at the centre of each hexon; the Ig-like domain is flexible and was not modelled; also called gp10

Experiments:
Assay in all cases: cryo-EM structure; mature T5 virions (fiberless mutant) purified by CsCl gradients, in buffer A (100 mM NaCl, 1 mM MgSO4, 1 mM CaCl2, 10 mM Tris-HCl, pH 7.6); icosahedral, symmetry-mismatch and local reconstructions of head, portal, connector, tail tube and tail tip
[1] = target: tail terminator protein p142 (bacteriophage T5)
[2] = target: adaptor protein p144 (bacteriophage T5)
[3] = target: the molecule itself
[4] = target: B2; conditions: both partners purified

Molecule | stoichiometry N [3] | further results
tail terminator protein p142 (natural protein) |  | stoichiometry N [1]: 6
adaptor protein p144 (natural protein) |  | stoichiometry N [2]: 12
B1 | 12 | 
B2 | 775 | 
B3 | 3 | 
B4 | 3 | 
B5 | 6 | 
B6 | 3 | 
B7 |  | binding result [4]: binds
